Results published in patent US20240350583A1, “COMPOSITION FOR PREVENTING OR TREATING FIBROTIC DISEASES, COMPRISING HAPLN1” (Chung Ang University Industry Academic Cooperation …, priority 2021, published 2024).

B1: rhHAPLN1: recombinant human HAPLN1 protein of SEQ ID NO: 1 produced in CHO-K1 cells, stabilized in acetic acid buffer, sucrose, PS80, pH 5.0 (protein, listed as Homo sapiens)
chain: MKSLLLLVLISICWADHLSDNYTLDHDRAIHIQAENGPHLLVEAEQAKVFSHRGGNVTLPCKFYRDPTAFGSGIHKIRIKWTKLTSDYLKEVDVFVSMGYHKKTYGGYQGRVFLKGGSDSDASLVITDLTLEDYGRYKCEVIEGLEDDTVVVALDLQGVVFPYFPRLGRYNLNFHEAQQACLDQDAVIASFDQLYDAWRGGLDWCNAGWLSDGSVQYPITKPREPCGGQNTVPGVRNYGFWDKDKSRYDVFCFTSNFNGRFYYLIHPTKLTYDEAVQACLNDGAQIAKVGQIFAAWKILGYDRCDAGWLADGSVRYPISRPRRRCSPTEAAVRFVGFPDKKHKLYGVYCFRAYN

Assays:
[1] = may vary from cell to cell; related literature; cited from earlier work
[2] = tested on: bleomycin-induced pulmonary fibrosis (BIPF); assay: Bleomycin-induced pulmonary fibrosis mouse model, prevention (inhalation from day 1); type: in vivo; conditions: for Ashcroft score (normal 0, control 6.25): nebulized 1 hour once daily for 10 days from 1 day after bleomycin
Procedure: The experimental animals used were 8-week-old female C57BL/6N (KBSI, Daejeon, Korea) mice, and were set as a normal control group (Normal, PBS) and two dose of administration groups (composition of the present disclosure including rhHAPLN1 protein). The water was changed every two days and the mice were allowed to eat ad libitum, and the mice were placed in one cage of four, and the temperature in the room was kept at 21° C. to 24° C. and the humidity at 40% to 60%, and the day and night cycles were 12 hours each.
To establish a bleomycin-induced pulmonary fibrosis (PF) model, 8-week-old female C57BL/6N mice were used, and divided into 4 groups (Normal, Control, 0.0005% (w/w) rhHAPLN1, 0.0015% (w/w) rhHAPLN1), with 4 mice per group, and the IPF disease induction method was referred to the paper by Liu et al. (Methods in Molecular Biology 2017, DOI: 10.1007/978-1-4939-7113-8_2) (see FIG. 12A). Administration of bleomycin (Bleomycin sulfate from Streptomyces verticillus. B8416; Sigma-Aldrich Co.) to induce idiopathic pulmonary fibrosis (IPF) was performed using a 1 ml-syringe and an oral dosing needle (Oral Zonde Needle 0.9×50 mm; 20 Guage) was used to anesthetize the patient and then carefully instillated orally intratracheally in a single 25 μl dose at a concentration of 2 U/kg, followed by nebulization with fresh 10 ml phosphate-buffered saline (1×PBS, pH 7.4; Gibco Co.) added dropwise to a nebulizer to generate nebulization and be freely inhaled.
Starting 1 day after bleomycin administration, the control was a mixture of 50 μl of a stock solution consisting of 20 mM Tris-HCl, 0.5 M NaCl, pH 8.0, 50% glycerol and 10 ml PBS (1×, pH 7.4, Gibco Co.) solution, while the two groups for the compositions of the present disclosure were treated with 50 μl of rhHAPLN1 stock solution at a rhHAPLN1 weight ratio concentration of 0.0005% (w/w), in other words, 5,000 ng/ml, and 0.0015% (w/w), in other words, 15,000 ng/ml, respectively, were mixed in 10 ml PBS (1×, pH 7.4, Gibco Co.) and administered to each group once a day for 1 hour by nebulization via the nebulizer described above. The weight of each experimental animal was measured every 2 days to confirm that there was no change in weight, and a mass dosing system and aerosol chamber (Data Science International Co.) were used to generate the mist. […]
Next, three tissue slides were prepared per mouse by cutting the middle portion of the left large lobe of the mouse, and three sections were photographed randomly on one slide, and then, for a total of nine sections, the stained darker part was distinguished from the unstained white part, and the area of the stained darker part was measured using Image J software, and each figure obtained was averaged to obtain an average value per mouse. […]

[3] = tested on: MyOF system (differentiated lung myofibroblasts); assay: BioMAP Fibrosis panel, MyoF system, ELISA; type: cell-based
Text: The anti-fibrotic action effect of the composition of the present disclosure on pulmonary fibrosis and kidney fibrosis was verified by examining the expression level of various fibrosis markers using the BioMAP Fibrosis Panel (provided by Eurofins discovery).
BioMAP Fibrosis panel consists of three models, SAEMyoF system (co-culturing small airway epithelial cells and adult fibroblasts), REMyOF system (co-culture of renal proximal tubule epithelial cells and adult fibroblasts), and MyOF system (differentiated lung myofibroblasts). Here, the SAEMyoF system represents interstitial lung diseases (IDL), including pulmonary fibrotic diseases such as idiopathic pulmonary fibrosis (IPF), and the REMyOF system represents kidney fibrosis disease, which is associated with end-stage renal failure. However, experiments were conducted to confirm the effect of the MyoF system only on myofibroblasts.
(1) Each primary cell was used by pooling cells from multiple donors (n=3 to 6), and cells were first cultured in 96-well plates to confluence before adding a peripheral blood mononuclear cell (PBMC).
(2) Subsequently, the cells were then each treated with the composition of the present disclosure (rhHAPLN1 protein content of 0, 3.7, 11, and 33 ng/ml) at different concentrations and cultured for 1 hour. […]
Each quantitative value was compared as a relative fold change compared to the vehicle control. […]

Molecule | effective doses in cells [1] [µg/mL] | Ashcroft score (normal 0, control 6.25) ([2]; composition 1, rhHAPLN1 0.0005% (w/w)) | Ashcroft score (normal 0, control 6.25) ([2]; composition 2, rhHAPLN1 0.0015% (w/w)) | H&E lung tissue form (FIG. 12B) ([2]; rhHAPLN1 0.0015% (w/w)) | average area of dark (fibrotic) H&E-stained lung area compared to control (FIG. 12C) ([2]; rhHAPLN1 0.0015% (w/w)) | expression level of collagen I (MyoF system, FIG. 11C), fold change compared to vehicle control ([3]; in proportion to rhHAPLN1 content (3.7, 11, 33 ng/ml)) [fold] | expression level of collagen IV, fold change compared to vehicle control (FIG. 11C) ([3]; rhHAPLN1 33 ng/ml) [fold]
Cc1ccc(=O)n(-c2ccccc2)c1 [pirfenidone, reference compound] | ≥ 100 |  |  |  |  |  | 
B1 |  | 5.25 | 0.5 | quite similar to that of the normal group | reduced to be quite close to the normal group | ≤ 0.8 | 0.7
